Test results taken from patent US20050136055A1.

Tests used:
[1] = biological target: Fc receptors (FcR) on human leukocytes (human); test: 125I-labelled IgG1 control on human leukocytes, 4 C
[2] = biological target: Fc receptors (FcR) on cynomolgus leukocytes (cynomolgus); test: 125I-labelled IgG1 control on cynomolgus leukocytes, 4 C

- specific binding as % of the total bound radioactivity [1]: 56%
- specific binding as % of the total bound radioactivity [2]: 51%
Substance: human IgG1 control mAb (antibody)
